Assays:
HLA-A*01:01 = assay: IEDB peptide-MHC binding, purified MHC/direct/fluorescence; filed as Kd, often an IC50 or EC50 that approximates it; ≥ and ≤ were set here for values at or beyond the usual limits of such assays
HLA-A*02:01 [1] = assay: as above
HLA-A*03:01 [2] = assay: as above
HLA-A*11:01 [3] = assay: as above; conditions: source organism: Yellow fever virus
HLA-A*29:02 = assay: as above; conditions: source organism: Yellow fever virus
HLA-A*31:01 = assay: as above
HLA-A*69:01 [4] = assay: as above
HLA-B*07:02 = assay: as above
HLA-B*15:01 [5] = assay: as above
HLA-B*15:09 = assay: as above
HLA-B*18:01 [6] = assay: as above; conditions: source organism: Yellow fever virus
HLA-B*27:05 = assay: as above
HLA-B*40:01 = assay: as above
HLA-B*44:02 = assay: as above; conditions: source organism: Yellow fever virus
HLA-B*46:01 [7] = assay: as above
HLA-B*48:01 = assay: as above
HLA-B*57:01 [8] = assay: as above
HLA-B*58:01 = assay: as above
HLA-A*26:03 = assay: as above; conditions: source organism: Listeria monocytogenes serotype 4b str. H7858
HLA-C*15:02 = assay: as above
HLA-A*24:02 = assay: IEDB peptide-MHC binding, purified MHC/competitive/fluorescence; filed as Kd, often an IC50 or EC50 that approximates it; ≥ and ≤ were set here for values at or beyond the usual limits of such assays; conditions: source organism: Escherichia coli B7A
HLA-A*02:01 [9] = assay: as above; conditions: source organism: Human immunodeficiency virus 1
HLA-A*02:03 = assay: as above
HLA-A*02:06 = assay: as above; conditions: source organism: Human immunodeficiency virus 1
HLA-A*02:11 = assay: as above
HLA-A*02:19 = assay: as above
HLA-A*69:01 [10] = assay: as above; conditions: source organism: Human immunodeficiency virus 1
HLA-A*02:12 = assay: as above; conditions: source organism: Yersinia pestis Nepal516
HLA-A*03:01 [11] = assay: as above; conditions: source organism: Yersinia pestis Nepal516
HLA-A*26:01 = assay: as above; conditions: source organism: Yersinia pestis Nepal516
HLA-B*15:01 [12] = assay: as above; conditions: source organism: Yersinia pestis Nepal516
HLA-B*18:01 [13] = assay: as above
HLA-B*27:03 = assay: as above; conditions: source organism: Yersinia pestis Nepal516
HLA-B*39:01 [14] = assay: as above; conditions: source organism: Yersinia pestis Nepal516
HLA-B*46:01 [15] = assay: as above; conditions: source organism: Yersinia pestis Nepal516
HLA-B*51:01 = assay: as above; conditions: source organism: Yersinia pestis Nepal516
HLA-B*57:01 [16] = assay: as above; conditions: source organism: Yersinia pestis Nepal516
HLA-A*24:03 = assay: IEDB peptide-MHC binding, purified MHC/direct/fluorescence; filed as Kd, often an IC50 or EC50 that approximates it; ≥ and ≤ were set here for values at or beyond the usual limits of such assays; conditions: source organism: Camelpox virus M-96
HLA-B*08:01 = assay: as above; conditions: source organism: Variola virus
HLA-B*08:02 = assay: as above; conditions: source organism: Variola virus
HLA-A*11:01 [17] = assay: IEDB peptide-MHC binding, purified MHC/competitive/fluorescence; filed as Kd, often an IC50 or EC50 that approximates it; ≥ and ≤ were set here for values at or beyond the usual limits of such assays
HLA-A*26:02 = assay: as above; conditions: source organism: Taterapox virus
HLA-A*68:02 = assay: as above; conditions: source organism: Taterapox virus
HLA-B*15:17 [18] = assay: as above; conditions: source organism: Taterapox virus
HLA-B*15:17 [19] = assay: IEDB peptide-MHC binding, purified MHC/direct/fluorescence; filed as Kd, often an IC50 or EC50 that approximates it; ≥ and ≤ were set here for values at or beyond the usual limits of such assays; conditions: source organism: Camelpox virus CMS
HLA-B*39:01 [20] = assay: as above; conditions: source organism: Variola virus
[21] = source organism: Yellow fever virus
[22] = source organism: Human immunodeficiency virus 1
[23] = source organism: Giardia lamblia ATCC 50803
[24] = source organism: Yersinia pestis Nepal516
[25] = source organism: Camelpox virus M-96
[26] = source organism: Taterapox virus
[27] = source organism: Camelpox virus CMS

Sequence: FHERGYVKL
- Kd (HLA-A*01:01; [21]): ≥ 20 µM
- Kd (HLA-A*02:01 [1]; [21]): ≥ 20 µM
- Kd (HLA-A*03:01 [2]; [21]): ≥ 20 µM
- Kd (HLA-A*11:01 [3]): ≥ 20 µM
- Kd (HLA-A*29:02): ≥ 20 µM
- Kd (HLA-A*31:01; [21]): ≥ 20 µM
- Kd (HLA-A*69:01 [4]; [21]): ≥ 20 µM
- Kd (HLA-B*07:02; [21]): ≥ 20 µM
- Kd (HLA-B*15:01 [5]; [21]): ≥ 20 µM
- Kd (HLA-B*15:09; [21]): 0.071 µM
- Kd (HLA-B*18:01 [6]): ≥ 20 µM
- Kd (HLA-B*27:05; [21]): ≥ 20 µM
- Kd (HLA-B*40:01; [21]): ≥ 20 µM
- Kd (HLA-B*44:02): ≥ 20 µM
- Kd (HLA-B*46:01 [7]; [21]): ≥ 20 µM
- Kd (HLA-B*48:01; [21]): ≥ 20 µM
- Kd (HLA-B*57:01 [8]; [21]): ≥ 20 µM
- Kd (HLA-B*58:01; [21]): ≥ 20 µM

Sequence: FTYAPAGMY
- Kd (HLA-A*26:03): 0.114 µM

Sequence: ITPTIYLLL
- Kd (HLA-C*15:02; source organism: Escherichia coli B7A): 0.396 µM
- Kd (HLA-A*24:02): 0.0007 µM

Sequence: NTVATLYCV
- Kd (HLA-A*02:01 [9]): 0.215 µM
- Kd (HLA-A*02:03; [22]): 0.0135 µM
- Kd (HLA-A*02:06): ≤ 0.0001 µM
- Kd (HLA-A*02:11; [22]): 0.0007 µM
- Kd (HLA-A*02:19; [22]): 0.0107 µM
- Kd (HLA-A*69:01 [10]): ≤ 0.001 µM

Sequence: RAIREYFQF
- Kd (HLA-B*57:01 [8]; [23]): 0.0477 µM
- Kd (HLA-B*58:01; [23]): 0.005 µM
- Kd (HLA-C*15:02; [23]): 2.13 µM

Sequence: SMLCWLGMT
- Kd (HLA-A*02:03; [24]): ≥ 20 µM
- Kd (HLA-A*02:11; [24]): 0.0512 µM
- Kd (HLA-A*02:12): 0.577 µM
- Kd (HLA-A*02:19; [24]): ≥ 20 µM
- Kd (HLA-A*03:01 [11]): ≥ 20 µM
- Kd (HLA-A*26:01): ≥ 20 µM
- Kd (HLA-B*15:01 [12]): ≥ 20 µM
- Kd (HLA-B*18:01 [13]; [24]): ≥ 20 µM
- Kd (HLA-B*27:03): ≥ 20 µM
- Kd (HLA-B*39:01 [14]): ≥ 20 µM
- Kd (HLA-B*46:01 [15]): ≥ 20 µM
- Kd (HLA-B*51:01): ≥ 20 µM
- Kd (HLA-B*57:01 [16]): ≥ 20 µM

Sequence: SYVFNFHKY
- Kd (HLA-A*01:01; [25]): ≥ 20 µM
- Kd (HLA-A*02:01 [1]; [25]): ≥ 20 µM
- Kd (HLA-A*24:03): 0.055 µM
- Kd (HLA-A*31:01; [25]): ≥ 20 µM
- Kd (HLA-A*69:01 [4]; [25]): ≥ 20 µM
- Kd (HLA-B*07:02; [25]): ≥ 20 µM
- Kd (HLA-B*08:01): ≥ 20 µM
- Kd (HLA-B*08:02): ≥ 20 µM
- Kd (HLA-B*15:01 [5]; [25]): ≥ 20 µM
- Kd (HLA-B*57:01 [8]; [25]): ≥ 20 µM
- Kd (HLA-B*58:01; [25]): ≥ 20 µM
- Kd (HLA-A*11:01 [17]; [26]): 2.55 µM
- Kd (HLA-A*26:02): 4.09 µM
- Kd (HLA-A*68:02): ≥ 20 µM
- Kd (HLA-B*15:17 [18]): ≥ 20 µM
- Kd (HLA-B*18:01 [13]; [26]): ≥ 20 µM

Sequence: VSEKYTDMY
- Kd (HLA-A*01:01; [27]): 0.0033 µM
- Kd (HLA-A*02:01 [1]; [27]): ≥ 20 µM
- Kd (HLA-A*03:01 [2]; [27]): ≥ 20 µM
- Kd (HLA-A*31:01; [27]): ≥ 20 µM
- Kd (HLA-A*69:01 [4]; [27]): ≥ 20 µM
- Kd (HLA-B*15:01 [5]; [27]): ≥ 20 µM
- Kd (HLA-B*15:09; source organism: Variola virus): ≥ 20 µM
- Kd (HLA-B*15:17 [19]): 0.126 µM
- Kd (HLA-B*27:05; [27]): ≥ 20 µM
- Kd (HLA-B*39:01 [20]): ≥ 20 µM
- Kd (HLA-B*40:01; [27]): ≥ 20 µM
- Kd (HLA-B*46:01 [7]; [27]): ≥ 20 µM
- Kd (HLA-B*48:01; [27]): ≥ 20 µM
- Kd (HLA-B*57:01 [8]; [27]): ≥ 20 µM
- Kd (HLA-B*58:01; [27]): ≥ 20 µM
- Kd (HLA-A*11:01 [17]; source organism: Vaccinia virus): ≥ 20 µM

Sequence: VSTAIAALF
- Kd (HLA-B*58:01; source organism: Mycobacterium tuberculosis): 0.0284 µM
- Kd (HLA-C*15:02; source organism: Mycobacterium tuberculosis H37Ra): 0.45 µM

From the Immune Epitope Database (IEDB)
